Data: paper PMC4852450, “SepG coordinates sporulation-specific cell division and nucleoid organization in Streptomyces coelicolor” (Open Biology, 2016)

Tests used:
[1] = target: T1, SepG–mCherry (S. coelicolor, UniProt Q9S2X3 1-94); assay: FRET or BRET; acceptor photobleaching in living S. coelicolor M145 hyphae; donor eGFP, acceptor mCherry; post-bleach donor intensity relative to the pre-bleach intensity (set to 1); details: partners not purified
T1 construct: SepG (YlmG), SCO2078, 94 aa membrane protein of Streptomyces coelicolor; called full-length sepG in the methods; egfp of pGWS755 replaced by the gene for mCherry; also called YlmG; SCO2078; source: S. coelicolor M145, expressed from the ftsZ promoter region (pGWS791), in living aerial hyphae; not shown: mCherry, C-terminal, kept
T1 sequence (looked up): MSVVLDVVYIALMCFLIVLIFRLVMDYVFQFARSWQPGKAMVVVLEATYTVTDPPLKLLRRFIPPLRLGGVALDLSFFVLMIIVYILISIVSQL

[2] = target: T2, FtsZ–mCherry (S. coelicolor, UniProt P45500 1-399); assay: as above; details: partners not purified
T2 construct: FtsZ, cell division scaffold protein of Streptomyces coelicolor; The FtsZ–mCherry construct is not described in the main text; source: S. coelicolor M145, expressed in living aerial hyphae
T2 sequence (looked up): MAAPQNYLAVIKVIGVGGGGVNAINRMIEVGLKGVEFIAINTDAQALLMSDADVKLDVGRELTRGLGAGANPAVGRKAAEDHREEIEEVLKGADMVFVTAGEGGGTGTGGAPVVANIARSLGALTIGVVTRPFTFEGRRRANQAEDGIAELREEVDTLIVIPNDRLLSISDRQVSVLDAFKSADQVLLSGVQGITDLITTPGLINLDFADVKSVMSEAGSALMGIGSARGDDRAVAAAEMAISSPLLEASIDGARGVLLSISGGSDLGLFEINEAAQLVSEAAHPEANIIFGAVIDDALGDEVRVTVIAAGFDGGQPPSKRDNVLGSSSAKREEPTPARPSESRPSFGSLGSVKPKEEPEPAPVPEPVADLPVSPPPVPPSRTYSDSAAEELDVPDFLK

- donor fluorescence intensity after acceptor photobleaching, relative to before (FRET) [1]: 1.05
- donor fluorescence intensity after acceptor photobleaching, relative to before (FRET) [2]: 1.08
B1: SsgB–eGFP (natural protein, S. coelicolor, UniProt Q9L268 1-137, looked up)
chain: MNTTVSCELHLRLVVSSESSLPVPAGLRYDTADPYAVHATFHTGAEETVEWVFARDLLAEGLHRPTGTGDVRVWPSRSHGQGVVCIALSSPEGEALLEAPARALESFLKRTDAAVPPGTEHRHFDLDQELSHILAES
notes: SsgB, SCO1541, FtsZ-recruiting cell division protein of Streptomyces coelicolor; also called SCO1541; source: S. coelicolor M145, expressed in living aerial hyphae
